Experimental data: PMC6539309, “PgMYB2, a MeJA-Responsive Transcription Factor, Positively Regulates the Dammarenediol Synthase Gene Expression in Panax Ginseng”

Target: PgMYB2 (TF fusion) (Panax ginseng, UniProt A0A1Z1CH15 1-280)
Assay: EMSA; LightShift Chemiluminescent EMSA kit protocol, room temperature, 20 min, native PAGE; protein stored in 20 mM Tris-HCl pH 7.2; binding buffer not stated
Details: protein: recombinant; tags: N-terminal trigger factor (TF) + 6xHis (pCold/TF); label: biotin; blunt

Chain of PgMYB2 (TF fusion) (A0A1Z1CH15 entry or part of it): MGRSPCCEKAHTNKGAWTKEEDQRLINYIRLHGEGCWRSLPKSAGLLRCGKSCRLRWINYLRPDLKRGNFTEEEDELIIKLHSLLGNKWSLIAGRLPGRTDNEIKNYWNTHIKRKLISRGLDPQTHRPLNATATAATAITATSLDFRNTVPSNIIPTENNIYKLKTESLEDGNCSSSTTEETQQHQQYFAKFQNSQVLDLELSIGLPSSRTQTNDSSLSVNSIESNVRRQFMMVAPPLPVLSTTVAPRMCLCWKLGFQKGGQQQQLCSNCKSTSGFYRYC

B1: MBSII probe (dsDNA)
DNA 1: GACTGGCATTGATTTAAAAGGCGGT
DNA 2: ACCGCCTTTTAAATCAATGCCAGTC
B1: binds.
